We go through nine molecules from US20260085127A1 (BRIGHTPATH BIOTHERAPEUTICS, published 2026).

Where two headings read alike, the source gives them in different places.

In test [1] the target is T1, human CD39 (Accession No. NM_001776.6) expressed on cells (human, UniProt P49961 1-510).
T1 construct: whole, on cells; On Jurkat, 293T or SK-MEL28 cells; also called Jurkat/CD39; 293T/CD39
T1 sequence (looked up): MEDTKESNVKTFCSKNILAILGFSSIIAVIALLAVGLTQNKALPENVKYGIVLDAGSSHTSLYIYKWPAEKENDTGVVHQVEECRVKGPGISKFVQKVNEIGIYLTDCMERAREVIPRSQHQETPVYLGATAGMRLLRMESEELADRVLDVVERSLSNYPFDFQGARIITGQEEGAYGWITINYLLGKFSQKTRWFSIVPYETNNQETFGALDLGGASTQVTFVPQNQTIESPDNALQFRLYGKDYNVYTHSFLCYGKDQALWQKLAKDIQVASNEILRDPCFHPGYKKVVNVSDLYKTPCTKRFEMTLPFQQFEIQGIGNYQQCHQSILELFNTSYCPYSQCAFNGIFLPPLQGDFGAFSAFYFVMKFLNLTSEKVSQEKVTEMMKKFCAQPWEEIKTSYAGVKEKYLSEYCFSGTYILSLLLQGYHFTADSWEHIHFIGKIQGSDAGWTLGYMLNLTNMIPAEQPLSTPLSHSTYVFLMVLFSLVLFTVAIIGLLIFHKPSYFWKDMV
Briefly: flow cytometry, Jurkat/CD39 cells, KD from MFI. On the technique in general: Flow cytometry measures light scatter and fluorescence of single cells or particles in a stream.

Test [2] deals with T1, human CD39 (Accession No. NM_001776.6) …. Briefly: flow cytometry, 293T/TIM-3 + CD39 cells, KD from MFI.
Test [3] concerns the target T2, recombinant human CD39 (in-house product, 38 to 478 aa of Accession No. NM_001776.6) (human, UniProt P49961 38-478).
T2 construct: also called rhCD39; human CD39-ECD; not shown: Myc and His tags at the C-terminus are named only for the PE-lab
T2 sequence (looked up): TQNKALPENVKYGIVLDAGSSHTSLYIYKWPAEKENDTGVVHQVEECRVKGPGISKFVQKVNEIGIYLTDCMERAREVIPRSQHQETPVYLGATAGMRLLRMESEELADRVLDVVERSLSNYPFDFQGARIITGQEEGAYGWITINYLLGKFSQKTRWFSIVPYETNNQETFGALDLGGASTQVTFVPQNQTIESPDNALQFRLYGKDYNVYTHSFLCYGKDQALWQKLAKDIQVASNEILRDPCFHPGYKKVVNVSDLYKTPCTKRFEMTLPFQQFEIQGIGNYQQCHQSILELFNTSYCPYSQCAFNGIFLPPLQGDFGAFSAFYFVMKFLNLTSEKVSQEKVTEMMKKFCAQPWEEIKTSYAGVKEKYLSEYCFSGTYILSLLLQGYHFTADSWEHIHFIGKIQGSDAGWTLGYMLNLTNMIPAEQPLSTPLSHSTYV
Briefly: SPR Biacore8K, antibody captured on anti-human IgG, antigen as analyte. (SPR reads the build-up and loss of mass on a sensor chip optically.)

The target of test [4] is T1, human CD39 (Accession No. NM_001776.6) …. Briefly: flow cytometry, Jurkat/TIM-3 + CD39 cells, KD from MFI.
Test [5] shares this target. Briefly: flow cytometry, 293T/CD39 cells, KD from MFI.
The target of test [6] is T3, biotinylated human TIM-3-Fc antigen (in-house product, SEQ ID No: 118) (human, biotinylated). Briefly: flow cytometry, inhibition of biotinylated TIM-3-Fc binding to phosphatidylserine on apoptotic Jurkat cells.
Test [7] addresses T3, biotinylated human TIM-3-Fc antigen …. Briefly: competition ELISA: human Galectin-9 coated, biotinylated human TIM-3-Fc pre-mixed with the antibody dilution series, Streptavidin-HRP, A450; blocked ligand: human Galectin-9. For orientation: An ELISA detects its analyte on a solid surface through an enzyme-linked reagent.
For test [8] the target is unchanged. Briefly: flow cytometry, inhibition of biotinylated TIM-3-Fc binding to phosphatidylserine on apoptotic Jurkat cells. This is another data set of the same source.
The target of test [9] is T1, human CD39 (Accession No. NM_001776.6) …. Briefly: flow cytometry, 293T/CD39 cells, KD from MFI. This is another data set of the same source.
Test [10] deals with T2, recombinant human CD39 (in-house …). Briefly: SPR Biacore8K, antibody captured on anti-human IgG, antigen as analyte. The source holds these as a separate data set.
Test [11] has as its target T3, biotinylated human TIM-3-Fc antigen …. Briefly: competition ELISA: human Galectin-9 coated, biotinylated human TIM-3-Fc pre-mixed with the antibody dilution series, Streptavidin-HRP, A450; blocked ligand: human Galectin-9. This is another data set of the same source.
Test [12] concerns the target T1, human CD39 (Accession No. NM_001776.6) …. Briefly: flow cytometry on a mix of Jurkat, Jurkat/TIM-3, Jurkat/CD39 and Jurkat/TIM-3+CD39 cells in one well, antibody at 0.1 nM, BV421-anti-hIgG, MFI of BV421 per cell group.
Test [13] addresses T4, human TIM-3 (Accession No. JX049979.1) stably expressed on cells (human, UniProt Q8TDQ0 22-301).
T4 construct: whole, on cells; On Jurkat or 293T cells; also called Jurkat/TIM-3; 293T/TIM-3
Briefly: flow cytometry, Jurkat/TIM-3 + CD39 cells, KD from MFI.

Test [14] addresses T4, human TIM-3 (Accession No. JX049979.1) …. Briefly: flow cytometry, Jurkat/TIM-3 cells, KD from MFI.

B1: 6-3hIG_sc (antibody)
scFv: QVQLVQSGAELVKPGASVKLSCKASGFSIKDTYVHWVKQAPGKGLEWIGKIDPANVNTKFDPKFQGRVTITADTSTNTAYLQLSSLRSEDTAVYYCALYGYDDDAYYFDYWGQGTLVTVSSGGGGSGGGGSGGGGSGGGGSEIVLTQSPASLSVSPGERATISCRASESVDNYGISFMNWFQQKPGQAPKLLIYAASNQGSGVPARFSGSGSGTDFTLTISSLEPEDFAVYYCQQSKEVPYTFGQGTKLEIK
notes: scFv-Fc homodimer, anti-CD39; also called scFv-Fc homodimeric antibody of anti-CD39_scFv antibody (humanized) 6-3hIG; not shown: GGGG linker and Fc-LALA (human IgG1 Fc with L234A and L235A)
One may read the Kd as the equilibrium constant for the complex coming apart. Usually koff stands for a measure of how fast the partners let go of each other. By kon is commonly meant the rate constant with which the complex forms. Take B1: the Kd was found to be 42.1 nM in [1]; 26.6 nM in test [2]; 0.465 nM in [3]; 33.6 nM in test [4]; 18.6 nM in test [5]. In addition, the koff in test [3] worked out at 0.000187 s⁻¹. For the same molecule, in test [3], the kon stood at 402000 M⁻¹ s⁻¹.

B2: HuP4_11_Hu003_Ct (bispecific antibody)
chain 1: EVQLVESGGALVQPGRSLRLSCAVSGFTLSNYGVHWVRQAPGKGLEWVAVILRRGSTDYNAAFMSRFTISKDNSKNTVYLQMNSLRADDTAVVAGDYFDYWGQGTTVTVSSGGGGSGGGGSGGGGSGGGGSDIVMTQSQKFMSTSVGDRVSITCKASQNVGTNVAWYQQKPGQSPKLLIYSASYRYSGVPDRFTGSGSGTDFTLTISNMQSEDLADYFCQQYNSYPLTFGGGTKLEIK
chain 2: QVQLQESGGGLVKPGGSLKLSCAASGFTFSSYYMSWVRQTPDKRLEWVATISNSGGSTYYPDSVKDRFTISRDNAKNTLYLQMSSLKSEDTAMYYCARDPYYTNYVPMDYWGQGTMVTVSSGGGGSGGGGSGGGGSGGGGSDIVMTQSPSFLSASVGDRVTITCKASQYVDTYVAWYQQRPGKAPKPLIYSASTRHTGVPSRFSGSGSGTEFTLTISSLQPEDFATYFCAQYSSSPLTFGGGTKLELK
One may read the IC50 as the concentration at which inhibition is half-maximal. Read a high IC50 as lower potency. In test [6], B2 displayed an IC50 of 30.7 nM. Besides, the “IC50 (read off the curve)” value in [7] was roughly 3 nM.

B3: mAnE67_Hu003_Fsc (bispecific antibody, not shown: a dimerising Fc or GST)
VH: EVQLVESGGGLVKPGGSRKLSCAASGFTFSDYGMHWVRQAPEKGLEWVAYISSGSSIIYYADTVKGRFTISRDNAKNTLFLQMTGLRSEDTAMYYCARKDYPYAMDYWGQGTSLAVSS
VL: SIVMTQTPKFMSTSVGDRVSVTCKASQNVGTNVAWYQQKPGQSPKALIYWASNRFTGVPDRFTGSGSGTDFTLTISNVQSEDLADYFCQQYSSSPYTFGSGTKLEIK
scFv: B2 chain 2
notes: Fab-scFv-Fc heterodimer: anti-CD39 mAnE67 arm (Knob)
Take B3: the IC50 in [8] came out at 19.8 nM. Besides, the results for the Kd in [9] and in [10] were 3.94 nM and 2.7 nM, respectively.

B4: T86_Hu003_Fsc (bispecific antibody, not shown: a dimerising Fc or GST)
VH: QIQLVQSGPELKKPGETVKISCEASGYTFINYGMNWVKQAPGKGLKWMGWINTYTGEPTYADDFKGRFAFSLETSANTAYLQINNLKNEDTATYFCARKGYYGYPNYYAMDYWGQGTSVTVSS
VL: DIVMTQSQKFMSTSVGDRVSITCKASQNVGTAVAWYQQKPGQSPKLLIYSASNRYTGVPDRFTGSGSGTDFTLTISNMQSEDLADYFCQQYSSYPITFGTGTKLEIK
scFv: B2 chain 2
notes: Fab-scFv-Fc heterodimer: anti-CD39 Fab T86 (Knob)
In turn, B4 had an IC50 in [8] of 23.9 nM. Besides, the Kd in test [9] was found to be 9.19 nM; in test [10], 2.4 nM.

B5: Tre291_Hu003_Fsc (bispecific antibody, not shown: a dimerising Fc or GST)
VH: QVQLKQSGPGLVQPSQSLSITCTVSGFSLTSYGVHWVRQSPGKGLEWLGVIWRRGSTDYNAAFMSRLSITKDTSKSQVFFKMNSLQTDDTAIYYCAGVRGDAMDYWGQGTSVTVSS
VL: DIVMTQSHKSMSTSVGDRVSVTCKASQNVGTNVAWYQQKPGQSPKALIYSASYRYSGVPDRFTGSGSGTDFTLTISNVQSEDLAEYFCQQYNSYPLTFGGGTKLEIK
scFv: B2 chain 2
notes: Fab-scFv-Fc heterodimer: anti-CD39 Fab Tre291 (Knob)
As to B5, the IC50 in test [8] worked out at 22.4 nM. For the same molecule, the results for the dissociation constant Kd in [9] and in [10] were 25.4 nM and 1.36 nM, respectively.

B6: 6-3hIG_Hu003_Fsc (bispecific antibody, not shown: a dimerising Fc or GST)
VH: QVQLVQSGAELVKPGASVKLSCKASGFSIKDTYVHWVKQAPGKGLEWIGKIDPANVNTKFDPKFQGRVTITADTSTNTAYLQLSSLRSEDTAVYYCALYGYDDDAYYFDYWGQGTLVTVSS
VL: EIVLTQSPASLSVSPGERATISCRASESVDNYGISFMNWFQQKPGQAPKLLIYAASNQGSGVPARFSGSGSGTDFTLTISSLEPEDFAVYYCQQSKEVPYTFGQGTKLEIK
scFv: B2 chain 2
As for B6, the IC50 in test [8] turned out to be 15.5 nM. Also, the “IC50 (read off the curve)” value in test [11] is roughly 2 nM. For the same molecule, the Kd in [9] came out at 17.6 nM; in test [10] it was 0.21 nM.

B7: Tre_291_sc (antibody)
scFv: QVQLKQSGPGLVQPSQSLSITCTVSGFSLTSYGVHWVRQSPGKGLEWLGVIWRRGSTDYNAAFMSRLSITKDTSKSQVFFKMNSLQTDDTAIYYCAGVRGDAMDYWGQGTSVTVSSGGGGSGGGGSGGGGSGGGGSDIVMTQSHKSMSTSVGDRVSVTCKASQNVGTNVAWYQQKPGQSPKALIYSASYRYSGVPDRFTGSGSGTDFTLTISNVQSEDLAEYFCQQYNSYPLTFGGGTKLEIK
notes: scFv-Fc homodimer, anti-CD39 (mouse variable regions); not shown: linker and Fc-LALA (human IgG1 Fc with L234A and L235A)
As for B7, the Kd was 0.8 nM in [1]; 7.15 nM in test [2]; 2.22 nM in test [3]; 0.922 nM in [4]; 2.43 nM in [5]. In test [3], the koff came to 0.0031 s⁻¹. Moreover, the kon in test [3] came out at 1.4e+06 M⁻¹ s⁻¹.

B8: Hu072_11_sc (antibody)
scFv: QVQLQESGGGLVKPGGSLKLSCAASGFTFSSYYMSWVRQTPDKRLEWVATISNSGGSTYYPDSVKDRFTISRDNAKNTLYLQMSSLKSEDTAMYYCARDPYYTNYVPMDYWGQGTMVTVSSGGGGSGGGGSGGGGSGGGGSDIVMTQSPDSLAVSLGERVTLSCKASENVGTYVSWYQQKPRQPPKLLIYGASNRYTGVPDRFSGSGSGTDFTLTISSLQAEDVALYYCGQSYSYPLTFGQGTRLEIK
notes: scFv-Fc homodimer, anti-TIM-3; also called scFv-Fc homodimeric antibody of anti-TIM-3_ScFv antibody Hu072_11; not shown: GGGG linker and Fc-LALA (IgG1 Fc with L234A and L235A)
Regarding B8, in [12], the binding result is recorded as “no binding (tested: 0.1 nM)”. The Kd amounted to 31.2 nM in [13] and 26.8 nM in [14].

B9: mAnE67_sc (antibody)
scFv: EVQLVESGGGLVKPGGSRKLSCAASGFTFSDYGMHWVRQAPEKGLEWVAYISSGSSIIYYADTVKGRFTISRDNAKNTLFLQMTGLRSEDTAMYYCARKDYPYAMDYWGQGTSLAVSSGGGGSGGGGSGGGGSGGGGSSIVMTQTPKFMSTSVGDRVSVTCKASQNVGTNVAWYQQKPGQSPKALIYWASNRFTGVPDRFTGSGSGTDFTLTISNVQSEDLADYFCQQYSSSPYTFGSGTKLEIK
notes: scFv-Fc homodimer, anti-CD39 (mouse variable regions); also called scFv-Fc homodimeric antibody of anti-CD39_scFv antibody mAnE67; not shown: linker and Fc-LALA (human IgG1 Fc with L234A and L235A)
On to B9, for which the Kd in [1] was 0.334 nM; in test [2], 5.5 nM; in test [3], 4.75 nM; in test [4] it was 0.343 nM; in test [5] it was 2.19 nM. In addition, the koff in test [3] was 0.00187 s⁻¹. The kon in test [3] was determined as 393000 M⁻¹ s⁻¹.
